# In the supplement of paper PMC9112550, “Optimization of the antimicrobial peptide Bac7 by deep mutational scanning” (BMC Biology, 2022):
# Tested on: Escherichia coli TOP10
# Test: shrunken log2 fold change of peptide-encoding DNA abundance (4.5 h post-induction vs induction); higher = less antimicrobial activity (less host growth inhibition)
# Settings: time post-induction: 4.5 h; library: site-saturation at positions 5, 18, 19, 20
# 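Also: peptides expressed intracellularly from a pBAD plasmid library in pooled LB shake-flask culture, induced with 0.3% L-arabinose, DNA abundance read by NGS, three biological replicates, DESeq2 with apeglm shrinkage.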
row,Sequence,shrunken log2 fold change
1,RRIRVRPPRLPRPRPRPKWSPRP,0.0979
2,RRIRFRPPRLPRPRPRPHVDPRP,-0.00919
3,RRIRVRPPRLPRPRPRPVTIPRP,-0.232
4,RRIRMRPPRLPRPRPRPMKKPRP,-0.00637
5,RRIRIRPPRLPRPRPRPPQAPRP,0.639
6,RRIRQRPPRLPRPRPRPTIDPRP,-0.0223
7,RRIRFRPPRLPRPRPRPKIGPRP,-0.0769
8,RRIRERPPRLPRPRPRPSIGPRP,-0.406
9,RRIRARPPRLPRPRPRPGCQPRP,0.168
10,RRIRHRPPRLPRPRPRPHELPRP,-0.126
11,RRIRARPPRLPRPRPRPVDSPRP,-0.0786
12,RRIRARPPRLPRPRPRPRARPRP,0.911
13,RRIRIRPPRLPRPRPRPDQNPRP,0.0467
14,RRIRQRPPRLPRPRPRPDPKPRP,0.0129
15,RRIRFRPPRLPRPRPRPPYMPRP,-0.43
16,RRIRARPPRLPRPRPRPCTSPRP,0.0117
17,RRIRERPPRLPRPRPRPHKDPRP,0.144
18,RRIRKRPPRLPRPRPRPPVTPRP,0.39
19,RRIRGRPPRLPRPRPRPTRCPRP,0.527
20,RRIRVRPPRLPRPRPRPLPMPRP,0.0885
21,RRIRTRPPRLPRPRPRPKQMPRP,0.0252
22,RRIRRRPPRLPRPRPRPWMEPRP,-0.137

row,Sequence,shrunken log2 fold change
1,RRIRMRPPRLPRPRPRPDVPPRP,0.323
2,RRIRQRPPRLPRPRPRPSESPRP,-0.0923
3,RRIRNRPPRLPRPRPRPRCRPRP,0.104
4,RRIRTRPPRLPRPRPRPVQIPRP,-0.0381
5,RRIRDRPPRLPRPRPRPVRAPRP,0.325
6,RRIRVRPPRLPRPRPRPGFQPRP,0.302
7,RRIRGRPPRLPRPRPRPIEMPRP,0.0736
8,RRIRKRPPRLPRPRPRPLKKPRP,0.0649
9,RRIRRRPPRLPRPRPRPFQQPRP,0.282
10,RRIRGRPPRLPRPRPRPAPAPRP,1.14
11,RRIRERPPRLPRPRPRPFYLPRP,-0.648
12,RRIRVRPPRLPRPRPRPIGAPRP,0.255
13,RRIRFRPPRLPRPRPRPENQPRP,-0.00277
14,RRIRWRPPRLPRPRPRPQPWPRP,0.363
15,RRIRVRPPRLPRPRPRPVIKPRP,-0.138
16,RRIRGRPPRLPRPRPRPPAHPRP,1.02
17,RRIRGRPPRLPRPRPRPDEYPRP,0.168
18,RRIRWRPPRLPRPRPRPCGEPRP,0.216
19,RRIRLRPPRLPRPRPRPILFPRP,-0.0559
20,RRIRRRPPRLPRPRPRPELGPRP,0.809
21,RRIRTRPPRLPRPRPRPREWPRP,0.259
22,RRIRIRPPRLPRPRPRPEYDPRP,0.0262

row,Sequence,shrunken log2 fold change
1,RRIRIRPPRLPRPRPRPLQKPRP,-0.0683
2,RRIRLRPPRLPRPRPRPLVAPRP,0.343
3,RRIRPRPPRLPRPRPRPMDFPRP,-0.115
4,RRIRVRPPRLPRPRPRPQNQPRP,-0.388
5,RRIRTRPPRLPRPRPRPRQNPRP,0.067
6,RRIRTRPPRLPRPRPRPQECPRP,-0.0262
7,RRIRIRPPRLPRPRPRPCCEPRP,-0.731
8,RRIRIRPPRLPRPRPRPFAQPRP,-0.108
9,RRIRQRPPRLPRPRPRPLHFPRP,-0.0222
10,RRIRIRPPRLPRPRPRPEAVPRP,0.0843
11,RRIRERPPRLPRPRPRPLIYPRP,-0.682
12,RRIRPRPPRLPRPRPRPGGFPRP,0.318
13,RRIRPRPPRLPRPRPRPFHYPRP,-1.27
14,RRIRVRPPRLPRPRPRPDAHPRP,0.21
15,RRIRPRPPRLPRPRPRPEELPRP,0.0725
16,RRIRWRPPRLPRPRPRPIPEPRP,-0.0356
17,RRIRWRPPRLPRPRPRPVKVPRP,-0.0471
18,RRIRIRPPRLPRPRPRPIPDPRP,-1.08
19,RRIRFRPPRLPRPRPRPPVYPRP,-0.124
20,RRIRGRPPRLPRPRPRPQDAPRP,0.832
21,RRIRARPPRLPRPRPRPYVCPRP,-0.255
22,RRIRVRPPRLPRPRPRPAIFPRP,0.0175

row,Sequence,shrunken log2 fold change
1,RRIRDRPPRLPRPRPRPLEEPRP,0.0347
2,RRIRARPPRLPRPRPRPYKFPRP,-0.279
3,RRIRLRPPRLPRPRPRPWFTPRP,-0.509
4,RRIRKRPPRLPRPRPRPLSEPRP,0.251
5,RRIRLRPPRLPRPRPRPKWCPRP,0.0847
6,RRIRTRPPRLPRPRPRPIQGPRP,-0.0537
7,RRIRLRPPRLPRPRPRPRLIPRP,0.123
8,RRIRKRPPRLPRPRPRPTIIPRP,-0.0974
9,RRIRKRPPRLPRPRPRPNQPPRP,0.146
10,RRIRMRPPRLPRPRPRPEEDPRP,0.0356
11,RRIRMRPPRLPRPRPRPWTWPRP,-0.0795
12,RRIRCRPPRLPRPRPRPVFTPRP,-0.211
13,RRIRVRPPRLPRPRPRPAACPRP,0.244
14,RRIRCRPPRLPRPRPRPSGEPRP,0.299
15,RRIRIRPPRLPRPRPRPTRSPRP,-0.00877
16,RRIRFRPPRLPRPRPRPQFGPRP,-0.0484
17,RRIRDRPPRLPRPRPRPMFCPRP,2.64
18,RRIRFRPPRLPRPRPRPLFKPRP,-0.279
19,RRIRSRPPRLPRPRPRPIGCPRP,-0.144
20,RRIRWRPPRLPRPRPRPVIEPRP,0.0398
21,RRIRHRPPRLPRPRPRPDWEPRP,-0.00783
22,RRIRERPPRLPRPRPRPYYNPRP,-0.675

row,Sequence,shrunken log2 fold change
1,RRIRSRPPRLPRPRPRPCKYPRP,-0.0911
2,RRIRARPPRLPRPRPRPKVVPRP,-0.0348
3,RRIRVRPPRLPRPRPRPQFDPRP,-0.00843
4,RRIRQRPPRLPRPRPRPCYNPRP,-0.0459
5,RRIRWRPPRLPRPRPRPDTYPRP,-0.161
6,RRIRYRPPRLPRPRPRPERHPRP,-0.0384
7,RRIRERPPRLPRPRPRPVTKPRP,0.365
8,RRIRERPPRLPRPRPRPVEKPRP,-0.0163
9,RRIRVRPPRLPRPRPRPYGFPRP,-0.222
10,RRIRFRPPRLPRPRPRPSHRPRP,-0.214
11,RRIRVRPPRLPRPRPRPFCNPRP,0.0823
12,RRIRPRPPRLPRPRPRPKPTPRP,0.434
13,RRIRWRPPRLPRPRPRPYSDPRP,-0.381
14,RRIRWRPPRLPRPRPRPETQPRP,0.0616
15,RRIRQRPPRLPRPRPRPHDQPRP,0.00277
16,RRIRFRPPRLPRPRPRPGGVPRP,0.106
17,RRIRYRPPRLPRPRPRPCSWPRP,-0.272
18,RRIRTRPPRLPRPRPRPMEMPRP,-0.236
19,RRIRVRPPRLPRPRPRPIFSPRP,-0.628
20,RRIRCRPPRLPRPRPRPLPQPRP,0.334
21,RRIRTRPPRLPRPRPRPYKAPRP,-1.77
